Positions count from the first letter of the chain named.
B1: CCL24 (protein)
chain: VVIPSPCCMFFVSKRIPENRVVSYQLSSRSTCLKAGVIFTTKKGQQFCGDPKQEWVQRYMKNLDAKQKKASPRARAVAVKGPVQRYPGNQTTC
B2: CCL11 (protein)
chain: not shown
B3: CCL13 (ligand)
chain: not shown
B4: CCL5 (ligand)
chain: SPYSSDTTPCCFAYIARPLPRAHIKEYFYTSGKCSNPAVVFVTRKNRQVCANPEKKWVREYINSLEMS
B5: CCL19 (protein)
chain: GTNDAEDCCLSVTQKPIPGYIVRNFHYLLIKDGCRVPAVVFTTLRGRQLCAPPDQPWVERIIQRLQRTSAKMKRRSS
B6: CCL4L1 (protein)
chain: APMGSDPPTACCFSYTARKLPRNFVVDYYETSSLCSQPAVVFQTKRGKQVCADPSESWVQEYVYDLELN
B7: CCL8 (protein)
chain: QPDSVSIPITCCFNVINRKIPIQRLESYTRITNIQCPKEAVIFKTKRGKEVCADPKERWVRDSMKHLDQIFQNLKP
B8: CCL23 (ligand)
chain: RVTKDAETEFMMSKLPLENPVLLDRFHATSADCCISYTPRSIPCSLLESYFETNSECSKPGVIFLTKKGRRFCANPSDKQVQVCMRMLKLDTRIKTRKN
B9: CCL14 (protein)
chain: TKTESSSRGPYHPSECCFTYTTYKIPRQRIMDYYETNSQCSKPGIVFITKRGHSVCTNPSDKWVQDYIKDMKEN
B10: CCL3 (ligand)
chain: SLAADTPTACCFSYTSRQIPQNFIADYFETSSQCSKPGVIFLTKRSRQVCADPSEEWVQKYVSDLELSA
B11: CCL15 (protein)
chain: QFTNDAETELMMSKLPLENPVVLNSFHFAADCCTSYISQSIPCSLMKSYFETSSECSKPGVIFLTKKGRQVCAKPSGPGVQDCMKKLKPYSI
B12: CCL4 (protein)
chain: B6 chain with G47S
B13: CCL27 (protein)
chain: FLLPPSTACCTQLYRKPLSDKLLRKVIQVELQEADGDCHLQAFVLHLAQRSICIHPQNPSLSQWFEHQERKLHGTLPKLNFGMLRKMG
B14: CCL18 (protein)
chain: AQVGTNKELCCLVYTSWQIPQKFIVDYSETSPQCPKPGVILLTKRGRQICADPNKKWVQKYISDLKLNA
B15: CCL16 (protein)
chain: QPKVPEWVNTPSTCCLKYYEKVLPRRLVVGYRKALNCHLPAIIFVTKRNREVCTNPNDDWVQEYIKDPNLPLLPTRNLSTVKIITAKNGQPQLLNSQ
B16: CCL3L1 (ligand)
chain: APLAADTPTACCFSYTSRQIPQNFIADYFETSSQCSKPSVIFLTKRGRQVCADPSEEWVQKYVSDLELSA
B17: CCL17 (protein)
chain: ARGTNVGRECCLEYFKGAIPLRKLKTWYQTSEDCSRDAIVFVTVQGRAICSDPNNKRVKNAVKYLQSLERS
B18: CCL21 (ligand)
chain: SDGGAQDCCLKYSQRKIPAKVVRSYRKQEPSLGCSIPAILFLPRKRSQAELCADPKELWVQQLMQHLDKTPSPQKPAQGCRKDRGASKTGKKGKGSKGCKRTERSQTPKGP
B19: P1156 (evasin from Ixodes ricinus), purified, C-terminal StrepII:His tag (natural protein)
chain: DGGADDDNELFTVQYCGMNCTKDEGGTWTGCTGKKEGCKCYHESGKNYGLCLSTEYTDFSQYGNPSDSEIEAAKPKRSDTLSH

What follows are binders tested against P1243:G4S:P1156 two-warhead evasin (Amblyomma americanum | Ixodes ricinus, UniProt A0A0C9S461;V5HBW0) (assay: BLI).
In the case of B1, the Kd is reported as 9.4 nM. B2 was tested, and the Kd was 5.1 nM. Work on B3 yielded a Kd of 1.5 nM. B4 showed a Kd of 3.4 nM. For B5, the Kd was 2.5 nM. For B6, the Kd was 14 nM. B7 was tested, and the Kd was 93 nM. Binder B8 has a Kd of 0.37 nM. Binder B9 has a Kd of 2.1 nM. With B10 the Kd was 25 nM. In the case of B11, the Kd is reported as 11 nM. Work on B12 yielded a Kd of 12 nM. Work on B13 yielded a Kd of 23 nM. B14 gave a Kd of 0.3 nM. For B15, the Kd was 0.93 nM. In the case of B16, the Kd is reported as 6.4 nM. B17 gave a Kd of 4.5 nM.

Each binder was assayed against P1156:G4S:P1243 two-warhead evasin (Ixodes ricinus | Amblyomma americanum, UniProt V5HBW0;A0A0C9S461) (assay: BLI).
B1 was tested, and the Kd was 4.5 nM. B2 was tested, and the Kd was 1.7 nM. In the case of B3, the Kd is reported as 0.7 nM. In the case of B4, the Kd is reported as 2.6 nM. Work on B5 yielded a Kd of 3 nM. B6 gave a Kd of 15 nM. B7 gave a Kd of 84 nM. With B8 the Kd was 0.098 nM. B9 showed a Kd of 1.1 nM. B11 was tested, and the Kd was 12 nM. Binder B12 has a Kd of 12 nM. With B13 the Kd was 17 nM. With B14 the Kd was 0.001 nM. B15 gave a Kd of 0.65 nM. With B16 the Kd was 5.3 nM. With B17 the Kd was 5.4 nM. Binder B18 has a Kd of 29 nM.

These binders were tested against CXCL8 (human) (assay: BLI).
Sequence of CXCL8 (human) (chain, as listed by the source): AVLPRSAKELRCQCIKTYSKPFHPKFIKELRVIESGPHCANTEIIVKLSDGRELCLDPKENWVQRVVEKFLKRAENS
Binder B19 has a Kd of 2.9 nM.

These binders were tested against CXCL1 (human, UniProt P09341 35-107) (assay: BLI).
With B19 the Kd was 5.8 nM.

Each binder was assayed against CXCL5 (human) (assay: BLI).
Binder B19 has a Kd of 30 nM.

These binders were tested against CXCL6 (human) (assay: BLI).
Work on B19 yielded a Kd of 63 nM.

What follows are binders tested against CXCL3 (human, UniProt P19876 35-107) (assay: BLI).
Binder B19 has a Kd of 70 nM.

Each binder was assayed against CXCL2 (human, UniProt P19875 35-107) (assay: BLI).
In the case of B19, the Kd is reported as 51 nM.
